Laboratory results taken from the supplement of paper PMC11780869.

Test system: Bacillus subtilis
Assay: cleaved RNA product abundance (RNA/gDNA barcode ratio) relative to median wild-type variant (ratio to wild type); higher = more accumulation of the downstream cleavage product
In short: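 Sequencing of barcodes from gel-selected, reverse-transcribed cleaved RNA and from genomic DNA, with UMI collapsing, yielded a per-construct RNA:gDNA ratio. Scaled to the median construct with the unmutated site, this ratio is the cleaved product abundance. The barcoded reporters (truncated aprE or tetM mRNAs with mutagenized RNase Y cleavage-site windows) were integrated into the B. subtilis chromosome, and cultures grew in LB at 37°C from OD600 0.0003 to 0.3.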

[1] = experiment (reporter, strain, medium): exp 2b: truncated aprE reporter, strain BJT200, cleavage site: cggR-gapA (positions -7 to +36 mutated)
[2] = experiment (reporter, strain, medium): exp 4a: truncated aprE reporter, strain BJT201 with 2% xylose (RNase J1 expressed), cleavage site: cggR-gapA (positions -7 to +36 mutated)
[3] = experiment (reporter, strain, medium): exp 8a: truncated aprE reporter, strain BJT201 with 2% xylose (RNase J1 expressed), cleavage site: glnRA (positions -5 to +31 mutated)
[4] = experiment (reporter, strain, medium): exp 6: tetM reporter, strain 168, cleavage site: cggR-gapA (positions -7 to +36 mutated)

In the case of “ACAGACGAAGGAGCCGCAAAGAAGTTATTAAAGGATGAATAATCCATCAATATAAATATCTCTCACTTATTTAAA”, the “cleaved RNA product abundance” value [1] is reported as 0.141 and the “cleaved RNA product abundance” value [2] is reported as 0.178.
For “CGACATGTCCCGCTTCTTTCATTAATCCTTTAGCAACTGTTTTGCTATATACATTTATCTTTTAAGAGGAGGAAT”, the “cleaved RNA product abundance” value [3] was 0.826.
In the case of “ACAGACGAAGGAGCCGCATAGAAGTTATTAAGGGATGAATAATCCCTCAATATTAATATCTCTCACTTATTTAAA”, the “cleaved RNA product abundance” value [2] is reported as 0.121.
In the case of “ACAGACGAAGGAGCCGCAAAGAAGTTATTAAGGGATGAATAATCCCTCAATATAATGATCTCTCACTTATTTAAA”, the “cleaved RNA product abundance” value [2] is reported as 0.348.
With “ACAGACGAAGGAGCCGCAAAGACGTTATAAAGGGATGAATAATCCCTCAATATAAATATCTCTCACTTATTTAAA” the “cleaved RNA product abundance” value [2] was 0.401.
For “ACAGACGAAGGAGCCGCAAAGATGTTATTAAGGGATGAATAATCCCTGAATATAAATATCTCTCACTTATTTAAA”, the “cleaved RNA product abundance” value [2] was 0.628.
In the case of “ACAGACGAAGGAGCCGCAAAGAAGTTATTAAGCGATTAATAATTCCTCAATATAAATATCTCTCACTTATTTAAA”, the “cleaved RNA product abundance” value [2] is reported as 0.0664.
In the case of “ACAGACGAAGGAGCCGCAAAGAAGTTATTAAGTGATGAAAAATCCCTCAATATAAATATCTCTCACTTATTTAAA”, the “cleaved RNA product abundance” value [1] is reported as 0.118 and the “cleaved RNA product abundance” value [2] is reported as 0.0967.
For “ACAGACGAAGGAGCCGCAAAGAAGTTATTAAGGGATGAATAATATCTCAATATAAATATCTCTCACTTATTTAAA”, the “cleaved RNA product abundance” value [1] was 0.0986 and the “cleaved RNA product abundance” value [2] was 0.116.
With “ACAGACGAAGGAGCCGCAAAGAACTTATTAAGGGAAGAATAATCCCTCAATATAAATATCTCTCACTTATTTAAA” the “cleaved RNA product abundance” value [2] was 0.235.
“CGACATGTCCCGCTTCTTTCATTAATTCGTTAGCAACTGCTTTGCTATATACATTTACCTTTTAAGAGGAGGAAT” was tested, and the “cleaved RNA product abundance” value [3] was 0.6.
In the case of “ACAGACGAAGGAGCCGCAAAGGAGTTATTAAGGGATGAATAATCCCCCAATATAAATATCTCTCACTTATTTAAA”, the “cleaved RNA product abundance” value [2] is reported as 0.247.
In the case of “ACAGACGAAGGAGCCGCAAAGAAGTCTTTAAGGGATGAATAATCCCTCAATATAAATATCTCTCACTTATTTAAA”, the “cleaved RNA product abundance” value [2] is reported as 0.181.
With “CGACATGTCCCGCTTCTTTCATTAATCCGTTAGCAATTGTTTTGCTATATACATGTACCTTTTAAGAGGAGGAAT” the “cleaved RNA product abundance” value [3] was 0.526.
“CGACATGTCCCGCTTCTTTCATTAATCAGTTAGCAACTGTTTTGCTATATACATTAACCTTTTAAGAGGAGGAAT” was tested, and the “cleaved RNA product abundance” value [3] was 0.984.
With “CGACATGTCCCGCTTCTTTCATTAATTCGTTAGCAACAGTTTTGCTATATACATTTACCTTTTAAGAGGAGGAAT” the “cleaved RNA product abundance” value [3] was 0.913.
For “ACAGACGAAGGAGCCGCAAGGAAGTTATTAACGGATGAATAATCCCTCAATATAAATATCTCTCACTTATTTAAA”, the “cleaved RNA product abundance” value [2] was 0.121.
With “ACAGACGAAGGAGCCGCATAGAAGTTATTAAGCGATGAATAATCCCTCAATATAAATATCTCTCACTTATTTAAA” the “cleaved RNA product abundance” value [2] was 0.122.
For “ACAGACGAAGGAGCCGCAAAGAAGTTATTAAGGGATGAAAAAACCCTCAATATAAATATCTCTCACTTATTTAAA”, the “cleaved RNA product abundance” value [1] was 0.411 and the “cleaved RNA product abundance” value [2] was 0.642.
For “ACAGACGAAGGAGCCGCACAGAAGTTATTAAGGGATGAATAATCCCTCAATATACATATCTCTCACTTATTTAAA”, the “cleaved RNA product abundance” value [2] was 1.13.
“ACAGACGAAGGAGCCGCAAAGAAGTTATTAACGGATCAATAATCCCTCAATATAAATATCTCTCACTTATTTAAA” was tested, and the “cleaved RNA product abundance” value [1] was 0.0668 and the “cleaved RNA product abundance” value [2] was 0.104.
“ACAGACGAAGGAGCCGCAAAGAAGTTATTAAGGGACGAATAGTCCCTCAATATAAATATCTCTCACTTATTTAAA” was tested, and the “cleaved RNA product abundance” value [1] was 0.905.
With “ACAGACGAAGGAGCCGCAAAGAAGTTATTAAGGGACGAATAATCCCTCAATATAAATTTCTCTCACTTATTTAAA” the “cleaved RNA product abundance” value [2] was 0.559.
“ACAGACGAAGGAGCCGCAAAGAAGTTATGAAGGGATGAATAATCCCTCAATATACATATCTCTCACTTATTTAAA” was tested, and the “cleaved RNA product abundance” value [2] was 0.344.
“ACAGACGAAGGAGCCGCAAAGAAGTTATGAAGGGATGAATAATCCCTCAATATAAATATCTCTCACTTATTTAAA” was tested, and the “cleaved RNA product abundance” value [1] was 0.384, the “cleaved RNA product abundance” value [2] was 0.502 and the “cleaved RNA product abundance” value [4] was 0.205.
With “ACAGACGAAGGAGCCGCAAAGAATTTATTAAGGGATGAATAATCGCTCAATATAAATATCTCTCACTTATTTAAA” the “cleaved RNA product abundance” value [1] was 0.105 and the “cleaved RNA product abundance” value [2] was 0.0604.
“CGACATGTCCCGCTTCTTTCATTAACCCGTTACCAACTGTTTTGCTATATACATTTACCTTTTAAGAGGAGGAAT” was tested, and the “cleaved RNA product abundance” value [3] was 0.162.
“CGACATGTCCCGCTTCTTTCATTAATCCGATTGCAACTGTTTTGCTATATACATTTACCTTTTAAGAGGAGGAAT” was tested, and the “cleaved RNA product abundance” value [3] was 0.294.
With “CGACATGTCCCGCTTCTTTCATTAACCCGTTAGCAACTGTTTTGCTATATACATTTACCTTTTAAGAGGAGGAAT” the “cleaved RNA product abundance” value [3] was 0.819.
For “ACAGACGAAGGAGCCGCAAAGAAGTGATTAAGGGATGCATAATCCCTCAATATAAATATCTCTCACTTATTTAAA”, the “cleaved RNA product abundance” value [2] was 0.51.
“ACAGACGAAGGAGCCGCAAAGAAGTTATTAAGTGATGAATAATCCCTCAATACAAATATCTCTCACTTATTTAAA” was tested, and the “cleaved RNA product abundance” value [1] was 0.102 and the “cleaved RNA product abundance” value [2] was 0.057.
In the case of “ACAGACGAAGGAGCCGCAAAGAAGTTATTAAGGGATGAATAATCCCACAATATAAAAATCTCTCACTTATTTAAA”, the “cleaved RNA product abundance” value [2] is reported as 0.25.
With “CGACATGTCCCGCTTCTTTCATTAATCCGTTAGCAACTGATTTGCCATATACATTTACCTTTTAAGAGGAGGAAT” the “cleaved RNA product abundance” value [3] was 0.226.
For “CGACATGTCCCGCTTCTTTCATTAATTCGTTAGCAACTGTTTTGCTATATACACTTACCTTTTAAGAGGAGGAAT”, the “cleaved RNA product abundance” value [3] was 0.629.
“CGACATGTCCCGCTTCTTTCATTAATCCGTTTGCAAATGTTTTGCTATATACATTTACCTTTTAAGAGGAGGAAT” was tested, and the “cleaved RNA product abundance” value [3] was 0.446.
In the case of “CGACATGTCCCGCTTCTTTCATTAATTCGTTAGCACCTGTTTTGCTATATACATTTACCTTTTAAGAGGAGGAAT”, the “cleaved RNA product abundance” value [3] is reported as 0.658.
With “ACAGACGAAGGAGCCGCAAACAAGTTATTAAGGGATGAATAATCCCTCAATATTAATATCTCTCACTTATTTAAA” the “cleaved RNA product abundance” value [1] was 0.12.
“CGACATGTCCCGCTTCTTTCATTAATCCGTTAGCAACTGTTTTCCTATATACATTTACTTTTTAAGAGGAGGAAT” was tested, and the “cleaved RNA product abundance” value [3] was 0.31.
For “ACAGACGAAGGAGCCGCAAAGAAGTTAATAAGGGATGAATAATCCCTCACTATAAATATCTCTCACTTATTTAAA”, the “cleaved RNA product abundance” value [2] was 0.263.
For “ACAGACGAAGGAGCCGCAAAGAAGTTATTAACAGATGAATAATCCCTCAATATAAATATCTCTCACTTATTTAAA”, the “cleaved RNA product abundance” value [1] was 0.0822 and the “cleaved RNA product abundance” value [2] was 0.0984.
For “ACAGACGAAGGAGCCGCAAAGAAGTTATTACGGGATGAATCATCCCTCAATATAAATATCTCTCACTTATTTAAA”, the “cleaved RNA product abundance” value [1] was 0.316.
“ACAGACGAAGGAGCCGCAAAGAAGTTATTAAGGGATTAATAATCCGTCAATATAAATATCTCTCACTTATTTAAA” was tested, and the “cleaved RNA product abundance” value [2] was 0.165.
“CGACATGTCCCGCTTCTTTCATTAATCCGTTAGGAAATGTTTTGCTATATACATTTACCTTTTAAGAGGAGGAAT” was tested, and the “cleaved RNA product abundance” value [3] was 0.361.
For “CGACATGTCCCGCTTCTTTCATTAATCCGTTAACAACTGTATTGCTATATACATTTACCTTTTAAGAGGAGGAAT”, the “cleaved RNA product abundance” value [3] was 0.316.
“ACAGACGAAGGAGCCGCTAAGAAGTTATTAAGGGATGAATAATGCCTCAATATAAATATCTCTCACTTATTTAAA” was tested, and the “cleaved RNA product abundance” value [2] was 0.154.
“ACAGACGAAGGAGCCGCAAAGAAGCTATTAAAGGATGAATAATCCCTCAATATAAATATCTCTCACTTATTTAAA” was tested, and the “cleaved RNA product abundance” value [1] was 0.111 and the “cleaved RNA product abundance” value [2] was 0.144.
“ACAGACGAAGGAGCCGCAAAGAAGTTATTAAGGGATGAATAATCCCTAATTATAAATATCTCTCACTTATTTAAA” was tested, and the “cleaved RNA product abundance” value [1] was 0.365 and the “cleaved RNA product abundance” value [2] was 0.447.
For “ACAGACGAAGGAGCCGCAAAGAAGATATTAAGGGATGAATAATCCCTTAATATAAATATCTCTCACTTATTTAAA”, the “cleaved RNA product abundance” value [2] was 0.192.
For “CGACATGTCCCGCTTCTTTCATTAATCCGCGAGCAACTGTTTTGCTATATACATTTACCTTTTAAGAGGAGGAAT”, the “cleaved RNA product abundance” value [3] was 0.318.
“CGACATGTCCCGCTTCTTTCATTATTCCGTTAGCAACTATTTTGCTATATACATTTACCTTTTAAGAGGAGGAAT” was tested, and the “cleaved RNA product abundance” value [3] was 1.91.
For “ACAGACGAAGGAGCCGCGAAGAAGTTATTAAGGAATGAATAATCCCTCAATATAAATATCTCTCACTTATTTAAA”, the “cleaved RNA product abundance” value [4] was 0.104.
For “ACAGACGAAGGAGCCGCAAAGAAGTTATTAAGGGATGAATAATCCCTCAATATAAATTTGTCTCACTTATTTAAA”, the “cleaved RNA product abundance” value [1] was 0.98.
With “CGACATGTCCCGCTTCTTTCATTAAACCGTTAGCAACTGTCTTGCTATATACATTTACCTTTTAAGAGGAGGAAT” the “cleaved RNA product abundance” value [3] was 0.759.
“CGACATGTCCCGCTTCTTTCATTAATTTGTTAGCAACTGTTTTGCTATATACATTTACCTTTTAAGAGGAGGAAT” was tested, and the “cleaved RNA product abundance” value [3] was 1.37.
“ACAGACGAAGGAGCCGCAAAGAAGTTAATAAGGGATGAATTATCCCTCAATATAAATATCTCTCACTTATTTAAA” was tested, and the “cleaved RNA product abundance” value [2] was 0.339.
